Data from US20210130436A1 (published 2021).
Where a chain is given by its changes, count along the chain named. Numbers in names are those of the source. Each block holds one binder with its values, some of them ahead of it.

Assays:
[1] = biological target: T1, human PD-L1 (human, UniProt Q9NZQ7 19-290); experiment: flow cytometry on CHO cells stably expressing PD-L1
T1 construct: also called huPD-L1; CD274
T1 sequence (Q9NZQ7 19-290): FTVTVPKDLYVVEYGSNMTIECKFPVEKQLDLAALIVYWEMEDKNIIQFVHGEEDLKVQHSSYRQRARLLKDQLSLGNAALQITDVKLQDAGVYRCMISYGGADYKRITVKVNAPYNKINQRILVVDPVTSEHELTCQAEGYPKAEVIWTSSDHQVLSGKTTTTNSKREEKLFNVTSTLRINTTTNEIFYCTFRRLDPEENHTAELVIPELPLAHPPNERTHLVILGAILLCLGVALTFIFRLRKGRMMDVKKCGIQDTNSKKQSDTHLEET

[2] = biological target: T2, human PD-L1 (human, UniProt Q9NZQ7 19-290); experiment: flow cytometry, CHO cells stably expressing huPD-L1, 33.3 nM, PE anti-human Fc
T2 construct: whole, on cells; also called huPD-L1
T2 sequence (Q9NZQ7 19-290): as above

[3] = biological target: T3, human CD28 (human, UniProt P10747 19-220); experiment: flow cytometry, Jurkat/IL2 reporter cells (endogenous CD28), 33.3 nM, PE anti-human Fc
T3 construct: whole, on cells; Endogenous CD28 of Jurkat/IL2 reporter cells

[4] = biological target: T4, human CTLA-4 (CTLA4), full-length, expressed on the surface of CHO cells (human, UniProt P16410 36-223); experiment: flow cytometry, CHO cells stably expressing human CTLA-4, 33.3 nM Fc fusion, PE anti-human Fc
T4 construct: also called huCTLA4

[5] = biological target: T5, human CD28, endogenously expressed on Jurkat/IL2 reporter cells (human, UniProt P10747 19-220); experiment: flow cytometry, Jurkat/IL2 reporter cells (endogenous CD28), 33.3 nM Fc fusion, PE anti-human Fc
T5 construct: This is the endogenous CD28 of Jurkat cells

[6] = biological target: T5, human CD28, endogenously expressed on …; experiment: flow cytometry on Jurkat cells (CD28); MFI against WT CD80 ECD-Fc (R&D)
[7] = biological target: T6, human PD-L1 (CD274), full-length, expressed on the surface of CHO cells (human, UniProt Q9NZQ7 19-290); experiment: flow cytometry; MFI on PD-L1 CHO cells over MFI on Jurkat cells (CD28)
T6 construct: also called huPD-L1; B7-H1

[8] = biological target: T6, human PD-L1 (CD274), full-length, …; experiment: flow cytometry, CHO cells stably expressing human PD-L1, 33.3 nM Fc fusion, PE anti-human Fc
[9] = biological target: T6, human PD-L1 (CD274), full-length, …; experiment: flow cytometry on PD-L1 CHO cells; MFI against WT CD80 ECD-Fc (R&D)
[10] = biological target: T4, human CTLA-4 (CTLA4), full-length, …; experiment: flow cytometry on CTLA-4 CHO cells; MFI against WT CD80 ECD-Fc (R&D)
[11] = biological target: T7, human PD-L1 (huPD-L1), full-length, stably expressed on CHO cells (human, UniProt Q9NZQ7 19-290); experiment: flow cytometry, CHO cells expressing huPD-L1
T7 construct: whole, on cells

[12] = biological target: T7, human PD-L1 (huPD-L1), full-length, …; experiment: flow cytometry, CHO cells expressing huPD-L1; MFI against WT CD80 of the table
[13] = biological target: T7, human PD-L1 (huPD-L1), full-length, …; experiment: flow cytometry; MFI on PD-L1 CHO cells over MFI on Jurkat cells (CD28)
[14] = biological target: T8, human CTLA4 (huCTLA4), full-length, stably expressed on CHO cells (human, UniProt P16410 36-223); experiment: flow cytometry, CHO cells expressing huCTLA4; MFI against WT CD80 of the table
T8 construct: whole, on cells

[15] = biological target: T8, human CTLA4 (huCTLA4), full-length, …; experiment: flow cytometry, CHO cells expressing huCTLA4

T4 sequence (P16410 36-223): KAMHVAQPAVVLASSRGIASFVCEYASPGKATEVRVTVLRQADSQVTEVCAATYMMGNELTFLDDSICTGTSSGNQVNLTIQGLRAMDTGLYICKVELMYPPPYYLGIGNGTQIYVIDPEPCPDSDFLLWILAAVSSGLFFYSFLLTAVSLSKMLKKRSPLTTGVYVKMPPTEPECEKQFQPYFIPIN
T8 sequence (P16410 36-223): as above
T6 sequence (Q9NZQ7 19-290): as the sequence (Q9NZQ7 19-290) above
T7 sequence (Q9NZQ7 19-290): as above

- Fold change to WT [6]: 0.04 fold
- Ratio of PDL1:CD28 [7]: 275 ratio
- MFI at 33.3 nM [4]: 14000 MFI
- MFI at 33.3 nM [5]: 284 MFI
- MFI at 33.3 nM [8]: 78000 MFI
- Fold change to WT [9]: 9.82 fold
- Fold change to WT CD80 [10]: 0.08 fold
B6: variant CD80 IgV-Fc Q33L/E35D/M43V/M47I/A71G (Fc fusion, not shown: a dimerising Fc or GST)
chain: VIHVTKEVKEVATLSCGHNVSVEELAQTRIYWLKDKKMVLTMVSGDINIWPEYKNRTIFDITNNLSIVILGLRPSDEGTYECVVLKYEKDAFKREHLAEVTLSVKAD

- Fold change to WT [6]: 1.83 fold
- Ratio of PDL1:CD28 [7]: 0 ratio
- MFI at 33.3 nM [4]: 437000 MFI
- MFI at 33.3 nM [5]: 14000 MFI
- MFI at 33.3 nM [8]: 1350 MFI
- Fold change to WT [9]: 0.17 fold
- Fold change to WT CD80 [10]: 2.45 fold
B7: variant CD80 IgV-Fc V22A/E35D/V68E/A71D (Fc fusion, not shown: a dimerising Fc or GST)
chain: B6 chain with V22A, L33Q, V43M, I47M, V68E, G71D
notes: The molecule is an Fc fusion, which the general text describes as a dimer

- MFI at 33.3 nM [11]: 18600 MFI
- Fold change to WT CD80 [12]: 361 fold
- Ratio of PDL1:CD28 [13]: 1300 ratio
- Fold change to WT CD80 [14]: 8.5 fold
- MFI at 33.3 nM [15]: 15000 MFI
B8: variant CD80 IgV-Fc E35D/M47L/V68M/E95V/L97Q (Fc fusion, not shown: small tags and cut ends; a dimerising Fc or GST)
chain: B6 chain with L33Q, V43M, I47L, V68M, G71A, E95V, L97Q

- Fold change to WT [6]: 0.04 fold
- Ratio of PDL1:CD28 [7]: 79 ratio
- MFI at 33.3 nM [4]: 77400 MFI
- MFI at 33.3 nM [5]: 323 MFI
- MFI at 33.3 nM [8]: 25400 MFI
- Fold change to WT [9]: 3.2 fold
- Fold change to WT CD80 [10]: 0.43 fold
B9: variant CD80 IgV-Fc V22A/R29H/E35D/D46E/M47I (Fc fusion, not shown: a dimerising Fc or GST)
chain: B6 chain with V22A, R29H, L33Q, V43M, D46E, G71A

- MFI at 33.3 nM [11]: 18600 MFI
- Fold change to WT CD80 [12]: 362 fold
- Ratio of PDL1:CD28 [13]: 1270 ratio
- Fold change to WT CD80 [14]: 8.8 fold
- MFI at 33.3 nM [15]: 15500 MFI
B11: variant CD80 IgV-Fc E24D/E35D/M47L/V68M/E95V/L97Q (Fc fusion, not shown: small tags and cut ends; a dimerising Fc or GST)
chain: B6 chain with E24D, L33Q, V43M, I47L, V68M, G71A, E95V, L97Q

Further lines, the binder ahead of its results:

B1: CD80 E35D/M47V/N48K/V68M/K89N IgV-Fc, GS(G4S)5 linker (Fc fusion, not shown: a dimerising Fc or GST)
chain: VIHVTKEVKEVATLSCGHNVSVEELAQTRIYWQKDKKMVLTMMSGDVKIWPEYKNRTIFDITNNLSIMILALRPSDEGTYECVVLKYENDAFKREHLAEVTLSVKADGSGGGGSGGGGSGGGGSGGGGSGGGGS
- MFI at 33.3 nM [1]: 22700 MFI

B2: H18Y/E35D/M47I/V68M/A71G/R94L CD80 IgV-Fc (Fc fusion, not shown: a dimerising Fc or GST)
chain: B6 chain with H18Y, L33Q, V43M, V68M, R94L
- MFI at 33.3 nM [2]: 14500 MFI
- MFI at 33.3 nM [3]: 1900 MFI

B3: variant CD80 IgV-Fc E35D/M47L/A71G/L97Q (Fc fusion, not shown: a dimerising Fc or GST)
chain: B6 chain with L33Q, V43M, I47L, L97Q
- MFI at 33.3 nM [4]: 226000 MFI
- MFI at 33.3 nM [5]: 300 MFI

B4: variant CD80 IgV-Fc Q33L/E35D/M47L/V68M/L85Q/E88D (Fc fusion, not shown: a dimerising Fc or GST)
chain: B6 chain with V43M, I47L, V68M, G71A, L85Q, E88D
- Fold change to WT [6]: 0.03 fold
- Ratio of PDL1:CD28 [7]: 476 ratio
- MFI at 33.3 nM [4]: 3530 MFI
- MFI at 33.3 nM [5]: 264 MFI
- MFI at 33.3 nM [8]: 126000 MFI
- Fold change to WT [9]: 15.8 fold
- Fold change to WT CD80 [10]: 0.02 fold

B5: variant CD80 IgV-Fc Q33L/E35D/M47L/A71G/F92S (Fc fusion, not shown: a dimerising Fc or GST)
chain: B6 chain with V43M, I47L, F92S
- Fold change to WT [6]: 0.05 fold
- Ratio of PDL1:CD28 [7]: 77 ratio
- MFI at 33.3 nM [4]: 2110 MFI
- MFI at 33.3 nM [5]: 366 MFI
- MFI at 33.3 nM [8]: 28000 MFI
- Fold change to WT [9]: 3.53 fold
- Fold change to WT CD80 [10]: 0.01 fold

B10: variant CD80 IgV-Fc E35D/M47V/A71G/L85M/L97Q (Fc fusion, not shown: a dimerising Fc or GST)
chain: B6 chain with L33Q, V43M, I47V, L85M, L97Q
- Fold change to WT [6]: 0.04 fold
- Ratio of PDL1:CD28 [7]: 182 ratio
- MFI at 33.3 nM [4]: 239000 MFI
- MFI at 33.3 nM [5]: 339 MFI
- MFI at 33.3 nM [8]: 61700 MFI
- Fold change to WT [9]: 7.77 fold
- Fold change to WT CD80 [10]: 1.34 fold
